B1: KL2B53 (Fab) (Fab, V domains shown)
VH: EVQLVESGGGVVQPGRSLRLSCVASGFTFSSYDIHWVRQAPGKGLEWVAIISYDGSKKDYTDSVKGRFTISRDNSKNTLYLQMDSLRVEDSAVYSCARESGWSHYYYYGMDVWGQGTMVTVSS
VL: DIVMTQSPSSLSASVGDRVTITCRASQDISNYLAWYQQKPGKVPKFLIYAASTLHSGVPSRFSGSGSGTDFTLTISSLQPEDVATYYCQKYNSAPYTFGQGTRLEIK
B2: KL2B30 (Fab) (Fab, V domains shown)
VH: QVQLQESGPGLVKPSETLSLTCTVSGGSISSYYWSWIRQPPGKGLEWIGYIYYSGSTNYNPSLKSRVTISVDTSKNQFSLKLSSVTAADTAVYYCAGTTIFGVVTPNFYYGMDVWGQGTTVTVSS
VL: DIQMTQSPSFLSASVGDRVTITCRASQGISSYLAWYQQKPGKAPKFLIYAASTLQSGVPSRFSGSGSGTEFTLTISSLQPEDFATYYCQQLNSYPLTFGGGTKVEIK
B3: KL2B467 (Fab) (Fab, V domains shown)
VH: QVQLVESGGGVVQPGRSLRLSCAASGFTFSYYGMHWVRQAPGKGLEWVAFISYDGSNKYYADSVKGRFTISRDNSKNTLYLQMNSLRAEDTAVYYCAHLPYSGSYWAFDYWGQGTQVTVSS
VL: QSVLTQPPSVSVAPGQTASITCGGDNIGSKSVHWYQQKPGQAPVLVVYDNSDRPSGIPERFSGSNSGTTATLTISRVEAGDEADYYCQVWDSSSDHPVVFGGGTKVTV
B4: KL2B359 (scFv-LH-Fc) (Fc fusion)
chain: EIVLTQSPATLSLSPGERATLSCRASESVEYFGTSLMHWYQQKPGQPPRLLIYAASNVESGIPARFSGSGSGTDFTLTISSVEPEDFAVYFCQQTRKVPYTFGGGTKVEIKGGSEGKSSGSGSESKSTGGSQVQLQESGPGLVKPSQTLSLTCTVSGNSITSDYAWNWIRQFPGKRLEWIGYISYSGSTTYNPSLKSRVTISRDTSKNQFSLKLSSVTAADTAVYYCATGYYYGSGFWGQGTLVTVSSEPKSSDKTHTCPPCPAPEAAGGPSVFLFPPKPKDTLMISRTPEVTCVVVSVSHEDPEVKFNWYVDGVEVHNAKTKPREEQYNSTYRVVSVLTVLHQDWLNGKEYKCKVSNKALPAPIEKTISKAKGQPREPQVYVLPPSREEMTKNQVSLLCLVKGFYPSDIAVEWESNGQPENNYLTWPPVLDSDGSFFLYSKLTVDKSRWQQGNVFSCSVMHEALHNHYTQKSLSLSPG
notes: also called KL2B359-LH-scFv-Fc
B5: KL2B494 (Fab) (Fab, V domains shown)
VH: QVQLVESGGGLVQPGGSLRLSCAASGFTFSHYAMSWVRQAPGKGLEWVSTIGGSGGSTYYADSVKGRFTISRDNSKNTLYLQMNSLRAEDTAVYYCAKPHIVMVTALLYDGMDVWGQGTMVTVSS
VL: SSELTQPPSVSVAPGQTARITCGGNNIGSKSVHWYQQKPGQAPVLVVYDDSDRPSGIPERFSGSNSGNTATLTISRVEAGDEADYYCQVWDSSSDHVVFGGGTKLTVL
B6: KL2B242 (Fab) (Fab, V domains shown)
VH: QVQLQESGPGLVKPSETLSLTCTVSGGSISSYYWSWLRQPAGSGLEWIGRLYVSGFTNYNPSLKSRVTLSLDPSRNQLSLKLSSVTAADTAVYYCAGDSGNYWGWFDPWGQGTLVTVSS
VL: SYELTQPPSVSVSPGETASITCSGDQLGENYACWYQQKPGQSPVLVIYQDSKRPSGIPERFSGSNSGNTATLTISGTQALDEADYYCQAWDNSIVVFGGGTKLTVL
B7: KL2B413 (scFv-LH-Fc) (Fc fusion)
chain: EIVLTQSPSFLSASVGDRVTITCRASQGISSYLSWYQQKPGKAPKLLIYATSTLQSGVPSRFSGSGSGTEFTLTISSLQPEDFATYYCQQLNSYPRTFGQGTKVEIKGGSEGKSSGSGSESKSTGGSEVQLVESGGGLVQPGGSLRLSCAASGFTFSSYWMTWVRQAPGKGLEWVANIKQDGSERYYVDSVKGRFTISRDNAKNSLYLQMNSLRAEDTAVYYCARDQNYDILTGHYGMDVWGQGTTVTVSSEPKSSDKTHTCPPCPAPEAAGGPSVFLFPPKPKDTLMISRTPEVTCVVVSVSHEDPEVKFNWYVDGVEVHNAKTKPREEQYNSTYRVVSVLTVLHQDWLNGKEYKCKVSNKALPAPIEKTISKAKGQPREPQVYVLPPSREEMTKNQVSLLCLVKGFYPSDIAVEWESNGQPENNYLTWPPVLDSDGSFFLYSKLTVDKSRWQQGNVFSCSVMHEALHNHYTQKSLSLSPG
notes: also called KL2B413-LH-scFv-Fc
B8: CAR6 (LH_LCHumanized_HCF3_20AA) (other)
chain: DIVLTQSPDSLAVSLGERATINCKASESVEYFGTSLMHWYQQKPGQPPKLLIYAASNRESGVPDRFSGSGSGTDFTLTISSLQAEDVAVYYCQQTRKVPYTFGQGTKLEIKGGSEGKSSGSGSESKSTGGSQVQLQESGPGLVKPSDTLSLTCAVSGNSITSDYAWNWIRQFPGKGLEWIGYISYSGSTTYNPSLKSRVTISRDTSKNQFSLKLSSVTPVDTAVYYCATGYYYGSGFWGQGTLVTVSSTSTPAPRPPTPAPTIASQPLSLRPEACRPAAGGAVHTRGLDFACDIYIWAPLAGTCGVLLLSLVITLYCKRGRKKLLYIFKQPFMRPVQTTQEEDGCSCRFPEEEEGGCELRVKFSRSADAPAYKQGQNQLYNELNLGRREEYDVLDKRRGRDPEMGGKPRRKNPQEGLYNELQKDKMAEAYSEIGMKGERRRGKGHDGLYQGLSTATKDTYDALHMQALPPR
notes: Chimeric antigen receptor on JNL cells or primary human T cells; also called hK2 CAR; pDR000083440
B9: CAR15 (LH_LCHumanized_HCHumanized_20AA) (other)
chain: B8 chain with F172P, I201M, P219A
notes: Chimeric antigen receptor with the hu11B6 scFv in VL-linker-VH order, on JNL cells or primary human T cells; also called 11B6_LH; parental 11B6 CAR LH
B10: CAR7 (LH_LCHumanized_HCG5_20AA) (other)
chain: B8 chain with I180M
notes: Chimeric antigen receptor on JNL cells or primary human T cells; also called hK2 CAR; pDR000083441
B11: CAR1 (HL_HCG5_LCD6_20AA) (other)
chain: QVQLQESGPGLVKPSDTLSLTCAVSGNSITSDYAWNWIRQFPGKGLEWMGYISYSGSTTYNPSLKSRVTISRDTSKNQFSLKLSSVTPVDTAVYYCATGYYYGSGFWGQGTLVTVSSGGSEGKSSGSGSESKSTGGSDIVLTQSPDSLAVSLGERATINCKASESVEYFGTSLMHWYQQKPGQPPKLLIYAASNRESGVPDRFSGSGSGTDFTLTIQSVQAEDVSVYFCQQTRKVPYTFGQGTKLEIKTSTPAPRPPTPAPTIASQPLSLRPEACRPAAGGAVHTRGLDFACDIYIWAPLAGTCGVLLLSLVITLYCKRGRKKLLYIFKQPFMRPVQTTQEEDGCSCRFPEEEEGGCELRVKFSRSADAPAYKQGQNQLYNELNLGRREEYDVLDKRRGRDPEMGGKPRRKNPQEGLYNELQKDKMAEAYSEIGMKGERRRGKGHDGLYQGLSTATKDTYDALHMQALPPR
notes: Chimeric antigen receptor (scFv, CD8a hinge and transmembrane region, 4-1BB and CD3-zeta domains) on JNL cells or primary human T cells; also called hK2 CAR; pDR000083431
B12: CAR2 (HL_HCG5_LCHumanized_20AA) (other)
chain: B11 chain with Q217S, V219L, S225A, F228Y
notes: Chimeric antigen receptor on JNL cells or primary human T cells; also called hK2 CAR; pDR000083432
B13: CAR13 (HL_HCHumanized_LCHumanized_20AA) (other)
chain: B11 chain with F41P, M49I, I70M, P88A, Q217S, V219L, S225A, F228Y
notes: Chimeric antigen receptor with the hu11B6 scFv in VH-linker-VL order, on JNL cells or primary human T cells; also called 11B6_HL; parental 11B6 CAR HL

Where a chain is given by its changes, count along the chain named.

T1 sequence (P20151 19-261): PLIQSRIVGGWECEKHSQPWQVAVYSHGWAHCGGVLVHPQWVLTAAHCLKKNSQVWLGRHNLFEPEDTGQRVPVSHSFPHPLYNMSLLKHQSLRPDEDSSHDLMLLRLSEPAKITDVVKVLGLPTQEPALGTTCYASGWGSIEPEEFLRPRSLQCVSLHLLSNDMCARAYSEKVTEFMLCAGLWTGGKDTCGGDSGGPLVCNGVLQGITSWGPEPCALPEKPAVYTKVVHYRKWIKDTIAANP

The first assay addresses T1, kallikrein related peptidase 2 (hK2), soluble (human, UniProt P20151 19-261, biotin label in the CAR staining assays (site not stated)).
T1 construct: also called KLK2; human KLK2 protein
Description: SPR; antibody captured on anti-Fc sensor chip, soluble hK2 injected; 1:1 Langmuir fit, KD = koff/kon. On the technique in general: In SPR one partner is held on a chip, and binding of the other changes the refractive index at the surface.
Turning to B1, the equilibrium dissociation constant (Kd) was 0.08 nM.
The molecule B2 showed an equilibrium dissociation constant (Kd) of 0.46 nM.
B3 showed a Kd of 0.078 nM.
On the same count and under the same terms, to B4 belongs 0.7 to 1 nM; to B5, 0.053 nM; to B6, 0.04 nM.
The molecule B7 had a Kd of 34.3 nM.

For the next assay, the target named is T1, kallikrein related peptidase 2 (hK2), …. Description: flow cytometry, primary human T cells transduced with the CAR lentivirus (MOI 3), biotinylated hK2 (1 ug/ml) then streptavidin-PE, 14 days after transduction; UTD gate 0.086. Background: In flow cytometry, cells or beads pass a laser one at a time.
B8: the “% of cells in the hK2CAR+ CD3+ gate” value came to 27.8%.
As for B9, the “% of cells in the hK2CAR+ CD3+ gate” value was determined as 22.6%.
Consider B10, for which the “% of cells in the hK2CAR+ CD3+ gate” value was 35%.
Regarding B11, the “% of cells in the hK2CAR+ CD3+ gate” value was determined as 20%.
On to B12, for which the “% of cells in the hK2CAR+ CD3+ gate” value was determined as 23.6%.
B13: the “% of cells in the hK2CAR+ CD3+ gate” value came out at 6.12%.

In general, Kd refers to the constant that tells how readily two partners part at equilibrium. A lower Kd goes with higher affinity.

(Values after patent US20260152559A1 (Janssen / Centocor, published 2026).)
